Paper PMC3974700, “SDA, a DNA Aptamer Inhibiting E- and P-Selectin Mediated Adhesion of Cancer and Leukemia Cells, the First and Pivotal Step in Transendothelial Migration during Metastasis Formation”

T1: E-selectin/IgG-Fc chimera (human, UniProt P16581 22-556)
T1 sequence: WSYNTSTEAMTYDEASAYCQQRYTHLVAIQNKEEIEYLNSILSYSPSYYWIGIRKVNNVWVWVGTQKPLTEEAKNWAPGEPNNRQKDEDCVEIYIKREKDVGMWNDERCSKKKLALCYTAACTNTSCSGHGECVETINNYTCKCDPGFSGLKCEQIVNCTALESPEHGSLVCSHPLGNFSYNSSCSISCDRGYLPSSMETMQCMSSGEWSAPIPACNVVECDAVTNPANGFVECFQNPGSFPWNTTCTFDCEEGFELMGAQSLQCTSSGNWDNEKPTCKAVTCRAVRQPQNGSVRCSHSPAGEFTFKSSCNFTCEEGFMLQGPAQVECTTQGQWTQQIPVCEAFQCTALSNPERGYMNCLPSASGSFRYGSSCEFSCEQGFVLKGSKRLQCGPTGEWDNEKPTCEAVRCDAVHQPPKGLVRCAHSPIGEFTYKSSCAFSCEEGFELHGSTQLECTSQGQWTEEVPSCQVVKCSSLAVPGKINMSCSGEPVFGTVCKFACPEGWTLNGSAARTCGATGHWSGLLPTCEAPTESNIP

B1: SDA (ssDNA)
DNA: GCCTGTTGTGAGCCTCCTAACGATTTGGATTTGGGGTGGAGGGTATGGTTTGTGCTGGCGTTCTCATTTCCCATGCTTATTCTTGTCTCCC
B2: control DNA (ssDNA)
DNA: GCCTGTTGTGAGCCTCCTAACGAGGAGTGGGCTAAAGGTATGTTGTGGGTTTGGTTCCATGCTTATTCTTGTCTCCC

What was measured:
[1] = target: T1, E-selectin/IgG-Fc chimera; assay: filter binding; 3 mM Mg2+; Selection buffer: 3 mM MgCl2 in PBS, pH 7.5 (with 1 mg/mL BSA as described for SELEX beads); room temperature, 30 min; DNA <1 nM, protein 0-1 uM; conditions: protein: commercial; tags: IgG-Fc fusion; chain copies: 2; label: 32P (T4 polynucleotide kinase)
[2] = target: P-selectin/IgG-Fc chimera (human, UniProt P16109 42-771); assay: as above; conditions: protein: commercial; tags: IgG-Fc fusion; chain copies: 2; label: 32P (T4 polynucleotide kinase)
Chain of P-selectin/IgG-Fc chimera (P16109 42-771, change not shown): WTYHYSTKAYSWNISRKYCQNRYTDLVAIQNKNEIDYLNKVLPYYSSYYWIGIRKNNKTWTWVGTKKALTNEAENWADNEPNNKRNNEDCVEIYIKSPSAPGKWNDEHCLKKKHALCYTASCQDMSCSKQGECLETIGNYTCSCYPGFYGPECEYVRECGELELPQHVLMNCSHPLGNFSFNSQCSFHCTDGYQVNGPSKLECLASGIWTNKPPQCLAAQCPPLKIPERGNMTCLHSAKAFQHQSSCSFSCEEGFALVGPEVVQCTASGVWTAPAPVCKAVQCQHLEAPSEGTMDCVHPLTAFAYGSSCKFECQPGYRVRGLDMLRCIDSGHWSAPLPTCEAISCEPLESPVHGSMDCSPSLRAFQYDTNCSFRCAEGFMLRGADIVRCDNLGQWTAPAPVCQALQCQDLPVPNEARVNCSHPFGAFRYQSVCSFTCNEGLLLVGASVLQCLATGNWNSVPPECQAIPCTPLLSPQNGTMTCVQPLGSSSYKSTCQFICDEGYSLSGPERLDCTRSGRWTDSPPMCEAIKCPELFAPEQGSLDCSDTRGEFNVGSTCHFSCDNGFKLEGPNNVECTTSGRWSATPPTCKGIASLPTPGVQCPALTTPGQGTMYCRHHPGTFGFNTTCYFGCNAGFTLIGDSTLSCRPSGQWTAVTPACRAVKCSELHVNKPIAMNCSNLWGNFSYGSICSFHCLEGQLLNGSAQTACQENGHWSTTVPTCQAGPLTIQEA

Row | Binder | Kd [1] [µM] | Kd [2] [µM] | binding result [1] | binding result [2]
1 | B1 | 0.098 ± 0.016 | 0.095 ± 0.018 | – | –
2 | B2 | – | – | no binding | no binding
